In US11813311B2, “Treatment and prevention of metabolic diseases” (Singapore Health Services PTE LTD., priority 2019, dated 2023):

How the values were obtained:
[1] = system: rheumatoid synovial cells; details: cited from earlier work
[2] = system: IL-11 mediated signalling; details: cited from earlier work
[3] = system: primary human hepatocytes; assay: Stimulation of primary human hepatocytes with IL11, hyperIL11, hyperIL6; assay type: cell-based
Description: Human hepatocytes (5200, ScienCell) were grown and maintained in hepatocyte media (5201, ScienCell) supplemented with 2% fetal bovine serum (FBS) and 1% Penicillin-streptomycin.
Primary human hepatocytes (5200, ScienCell) were maintained in hepatocyte medium ([…], ScienCell) supplemented with 2% fetal bovine serum, 1% Penicillin-streptomycin at 37° C. and 5% CO2. Hepatocytes (P2-P3) were serum-starved overnight unless otherwise specified in the methods prior to 24 hours stimulation with different doses of various recombinant proteins as described.
For surface IL11RA, IL6R, and gp130 analysis, primary human hepatocytes and THP-1 cells were stained with IL11RA, IL6R, or gp130 antibody and the corresponding Alexa Fluor 488 secondary antibody. Cell death analysis was performed by staining primary human hepatocytes with Dead Cell Apoptosis Kit with Annexin V FITC and PI (V13242, Thermo Fisher). PI+ve cells were then quantified with the flow cytometer (Fortessa, BD Biosciences) and analyzed with FlowJo version X software (TreeStar).
Alanine Aminotransferase (ALT) activity in the cell culture supernatant and mouse serum was measured using ALT Activity Assay Kit (ab105134, Abcam). Liver Glutathione (GSH) levels were measured using Glutathione Colorimetric Detection Kit (EIAGSHC, Thermo Fisher). Total hydroxyproline content in mouse livers was measured using Quickzyme Total Collagen assay kit (QZBtotco15, Quickzyme Biosciences). The levels of serum and liver triglycerides were measured using Triglyceride Assay Kit (ab65336, Abcam). Mouse serum levels of Aspartate Aminotransferase (AST) and cholesterol were measured using AST Assay Kit (ab105135, Abcam) and Cholesterol Assay Kit (ab65390; Abcam), respectively. All colorimetric assays were performed according to the manufacturer's protocol.
(§1) Western blots were carried out on total protein extracts from hepatocytes and liver tissues. Hepatocyte and liver tissue lysates were homogenized in RIPA Lysis and Extraction Buffer (89901, Thermo Scientific) containing protease and phosphatase inhibitors (Roche). Protein lysates were separated by SDS-PAGE and transferred to PVDF membranes. Protein bands were visualized using the ECL detection system (Pierce) with the appropriate secondary antibodies: anti-rabbit HRP or anti-mouse HRP.

[4] = system: primary human hepatocytes; assay: Palmitate loading (lipotoxicity) of primary human hepatocytes; assay type: cell-based
Description: Palmitate:BSA conjugated solution in the ratio of 6:1 was prepared as described earlier (Alsabeeh et al., 2018). Palmitate (0.5 mM) conjugated in fatty acids free BSA was used to treated cells as described in figure legends; 0.5% BSA solution was used as control. […]
Primary human hepatocytes were seeded on 8-well chamber slides (1×10^4 cells/well). For this experiment, cells were not serum-starved prior to palmitate treatment. 24 hours following palmitate stimulation, cells were washed, incubated with 25 μM of DCFDA solution (ab113851, Abcam) for 45 minutes at 37° C. in the dark, and rinsed with dilution buffer according to the manufacturer's protocol. Live cells with positive DCF staining were imaged with filter set appropriate for fluorescein (FITC) using a fluorescence microscope (Leica). […]
as §1

WDF-fed mice = assay: Hepatocyte-specific sgp130 expression in WDF-fed mice; assay type: in vivo, mouse
Description: (§2) Three weeks prior to starting either the WDF and HFMCD diet, mice were injected with an AAV8 virus encoding either albumin promoter-driven sgp130 (AAV8-Alb-sgp130), which contains the whole extracellular domain of mouse gp130 protein (amino acid 1 to 617), or albumin promoter alone (AAV8-Alb-Null) (FIGS. 35A, 41A, and 42A). AAV8-Alb-sgp130 administration induced high levels of sgp130 in the liver, which was also detectable in the peripheral circulation, suitable for both local and systemic inhibition of putative IL6 or IL11 trans-signaling (FIGS. 35B, 41B, 42B-42C).
6-8 weeks old C57BL/6N, Il11ra1−/− mice, and Il11ra1loxP/loxP and their respective control were fed western diet (D12079B, Research Diets) supplemented with 15% weight/volume fructose in drinking water (WDF) for 16 weeks. Control mice received NC and tap water.
(§3) 6-8-week old male C57BL/6N mice (InVivos) were injected with 4×10^11 gc AAV8-Alb-sgp130 virus to induce hepatocyte specific expression of soluble gp130; control mice were injected with 4×10^11 gc AAV8-Alb-Null virus. 3 weeks following virus administration, mice were fed with HFMCD, WDF, or NC for durations that are described.

HFMCD-fed mice = assay: Hepatocyte-specific sgp130 expression in HFMCD-fed mice; assay type: in vivo, mouse
Description: as §2
6-8 weeks old C57BL/6N, Il11ra1−/− mice, and Il11ra1loxP/loxP and their respective control were fed with methionine- and choline-deficient diet supplemented with 60 kcal % fat (HFMCD, A06071301B16, Research Diets) for 4 weeks. Control mice received normal chow (NC, Specialty Feeds).
as §3

## COc1ccc2c(c1)c(CC(=O)O)c(C)n2C(=O)c1ccc(Cl)cc1 [indomethacin, reference compound]
[1]
  expression of IL-11: reduction in the expression of IL-11

B1: W147A: IL-11 antagonist mutein, amino acid 147 mutated from tryptophan to alanine (protein, UniProt P20809 22-199, looked up, variant W147A)
Interleukin-11: PGPPPGPPRVSPDPRAELDSTVLLTRSLLADTRQLAAQLRDKFPADGDHNLDSLPTLAMSAGALGALQLPGVLTRLRADLLSYLRHVQWLRRAGGSSLKTLEPELGTLQARLDRLLRRLQLLMSRLALPQPPPDPPAPPLAPPSSAAGGIRAAHAILGGLHLTLDWAVRGLLLLKTRL
[2]
  antagonism of IL-11 mediated signalling: efficient blockade of IL-11 signalling

B2: sIL-11R: soluble murine IL-11 receptor alpha chain (Curtis et al.) (protein, UniProt Q64385 24-372, looked up)
extracellular domain: SPCPQAWGPPGVQYGQPGRPVMLCCPGVSAGTPVSWFRDGDSRLLQGPDSGLGHRLVLAQVDSPDEGTYVCQTLDGVSGGMVTLKLGFPPARPEVSCQAVDYENFSCTWSPGQVSGLPTRYLTSYRKKTLPGAESQRESPSTGPWPCPQDPLEASRCVVHGAEFWSEYRINVTEVNPLGASTCLLDVRLQSILRPDPPQGLRVESVPGYPRRLHASWTYPASWRRQPHFLLKFRLQYRPAQHPAWSTVEPIGLEEVITDAVAGLPHAVRVSARDFLDAGTWSAWSPEAWGTPSTGPLQDEIPDWSQGHGQQLEAVVAQEDSPAPARPSLQPDPRPLDHRDPLEQVAVLA
modifications: extracellular domain
[2]
  antagonism of IL-11 mediated signalling: capable of antagonizing the activity of IL-11

B3: sgp130: Soluble gp130, inhibitor of trans-signaling; human sgp130 Fc in vitro, mouse sgp130 expressed from AAV8-Alb-sgp130 in vivo (protein)
chain: ELLDPCGYISPESPVVQLHSNFTAVCVLKEKCMDYFHVNANYIVWKTNHFTIPKEQYTIINRTASSVTFTDIASLNIQLTCNILTFGQLEQNVYGITIISGLPPEKPKNLSCIVNEGKKMRCEWDGGRETHLETNFTLKSEWATHKFADCKAKRDTPTSCTVDYSTVYFVNIEVWVEAENALGKVTSDHINFDPVYKVKPNPPHNLSVINSEELSSILKLTWTNPSIKSVIILKYNIQYRTKDASTWSQIPPEDTASTRSSFTVQDLKPFTEYVFRIRCMKEDGKGYWSDWSEEASGITYEDRPSKAPSFWYKIDPSHTQGYRTVQLVWKTLPPFEANGKILDYEVTLTRWKSHLQNYTVNATKLTVNLTNDRYLATLTVRNLVGKSDAAVLTIPACDFQATHPVMDLKAFPKDNMLWVEWTTPRESVKKYILEWCVLSDKAPCITDWQQEDGTVHRTYLRGNLAESKCYLITVTPVYADGPGSPESIKAYLKQAPPSKGPTVRTKKVGKNEAVLEWDQLPVDVQNGFIRNYTIFYRTIIGNETAVNVDSSHTEYTLSSLTSDTLYMVRMAAYTDEGGKDGPEFTFTTPKFAQGEIE
modifications: left off: a dimerising Fc or GST
notes: human sgp130 Fc in vitro, mouse sgp130 expressed from AAV8-Alb-sgp130 in vivo
[3]; IL11 20 ng/ml, sgp130 or sIL11RA 1 μg/ml
  IL11-induced hepatocyte death and signaling: unaffected
[3]; increasing doses of sgp130 or sIL11RA
  ALT release from IL11-stimulated hepatocytes: no effect
[3]; sgp130 added
  activation of signaling downstream of hyperIL6 (p-STAT3): blocked
  activation of signaling downstream of hyperIL11 (p-ERK/p-JNK): blocked
  hepatotoxic effects of hyperIL11: inhibited
[3]; sgp130 or sIL11RA 1 μg/ml
  IL11 dose-dependent hepatocyte cell death on addition of decoy: unaffected
[4]; Western blot
  palmitate-induced signaling events: no effect
[4]; X209 2 μg/ml or sgp130 1 μg/ml
  secretion of cytokines (IL11, IL6, CCL2, CCL5): no effect
WDF-fed mice; 16 weeks of WDF
  ALT, AST, collagen, fasting blood glucose, serum triglycerides, serum cholesterol, GSH: none of these parameters were affected
  expression of pro-inflammatory and fibrosis genes: unaffected
  obesity, liver mass and steatosis phenotypes: unaffected
WDF-fed mice; WDF
  diet-induced signaling events: no effect
HFMCD-fed mice; HFMCD
  diet-induced signaling events: no effect
HFMCD-fed mice; HFMCD 4 weeks
  HFMCD-induced liver fibrosis: unchanged
  expression of inflammation and fibrosis genes: unaffected
  hepatocyte damage markers (ALT and AST) and GSH: irrespective of sgp130 expression
  steatosis: unaltered

B4: interferon-gamma: interferon-gamma (IFNγ) (protein, UniProt P01579 24-161, looked up)
Interferon gamma: QDPYVKEAENLKKYFNAGHSDVADNGTLFLGILKNWKEESDRKIMQSQIVSFYFKLFKNFKDDQSIQKSVETIKEDMNVKFFNSNKKKRDDFEKLTNYSVTDLNVQRKAIHELIQVMAELSPAAKTGKRKRSQMLFRG
[1]
  expression of IL-11: reduction in the expression of IL-11
